Columns and labels:
SoPrpF = target: T1, SoPrpF (Shewanella oneidensis, UniProt Q8EJW4); assay: HPLC time course; coupled aconitase assay; assay type: biochemical; details: substrate is the SoAcnD product of 2-methylcitrate; Tris-HCl 50 mM pH 8.0, KCl 100 mM
T1 construct: gene prpF; recombinant from pPRP196 (pTEV4, N-terminal TEV-cleavable H6 tag), purified as in earlier work; homodimer

SePrpD = target: T2, SePrpD (Salmonella enterica, UniProt P74840); assay: HPLC of reaction products; assay type: biochemical; details: 5 mM substrate, Tris-HCl 90 mM pH 8.0, 37°C, 1.5 h
T2 construct: gene prpD; recombinant, His-tagged, purified from E. coli
T2 sequence (P74840 1-483): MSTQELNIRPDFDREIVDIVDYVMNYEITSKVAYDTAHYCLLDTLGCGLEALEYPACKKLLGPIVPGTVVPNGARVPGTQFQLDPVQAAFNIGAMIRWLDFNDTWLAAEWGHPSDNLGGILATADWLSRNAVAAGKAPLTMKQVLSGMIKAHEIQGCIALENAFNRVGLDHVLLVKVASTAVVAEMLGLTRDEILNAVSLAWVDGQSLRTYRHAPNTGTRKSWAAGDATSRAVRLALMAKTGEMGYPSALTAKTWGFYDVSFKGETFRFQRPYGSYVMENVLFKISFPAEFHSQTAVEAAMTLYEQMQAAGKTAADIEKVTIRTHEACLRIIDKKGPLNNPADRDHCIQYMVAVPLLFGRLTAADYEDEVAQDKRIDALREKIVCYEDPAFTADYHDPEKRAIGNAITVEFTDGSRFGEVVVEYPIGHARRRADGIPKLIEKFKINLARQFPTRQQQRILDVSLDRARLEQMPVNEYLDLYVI

[1] = test system: C/C(C(=O)O)=C(\CC(=O)O)C(=O)O; assay: purified protein; details: Tris-HCl 50 mM pH 8.0, KCl 100 mM, 37°C, Fe/S-reactivated enzyme
purified protein = substrate: O=C(O)/C=C(/CC(=O)O)C(=O)O; assay: purified protein; details: Tris-HCl 50 mM pH 8.0, KCl 100 mM, 37°C, Fe/S-reactivated enzyme
[2] = target: the molecule itself; assay: crystal structure; hanging drop vapor diffusion, MES 100 mM pH 6.0, sodium malonate 136 mM, PEG 4K 15% w/v, room temperature; space group P2(1), two chains in the asymmetric unit related by a non-crystallographic twofold axis; 1.22 Å

T1 sequence (Q8EJW4 whole entry): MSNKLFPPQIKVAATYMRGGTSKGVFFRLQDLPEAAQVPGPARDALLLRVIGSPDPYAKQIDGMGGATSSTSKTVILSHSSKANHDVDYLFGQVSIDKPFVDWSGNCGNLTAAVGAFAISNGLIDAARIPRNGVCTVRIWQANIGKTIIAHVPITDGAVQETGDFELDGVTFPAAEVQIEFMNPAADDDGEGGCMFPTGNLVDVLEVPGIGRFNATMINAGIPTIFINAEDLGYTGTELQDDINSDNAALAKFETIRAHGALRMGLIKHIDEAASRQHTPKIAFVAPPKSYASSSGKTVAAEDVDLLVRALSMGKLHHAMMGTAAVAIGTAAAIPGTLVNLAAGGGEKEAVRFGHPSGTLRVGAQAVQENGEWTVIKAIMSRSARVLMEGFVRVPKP

**Q.** Which “HPLC time course; coupled aconitase assay” value (SoPrpF) does the source give for C/C(C(=O)O)=C(\CC(=O)O)C(=O)O [2-methyl-cis-aconitate] here?
**A.** SoPrpF converted the SoAcnD reaction product into 2-methyl-cis-aconitate over time

**Q.** How did the “HPLC of reaction products” value (SePrpD) turn out when CC(C(=O)O)C(O)(CC(=O)O)C(=O)O (stereo not shown) [2-methylcitrate] was run?
**A.** SePrpD synthesized 2-methyl-cis-aconitate from 2-methylcitrate

**Q.** With “SeAcnA (Salmonella enterica subsp. enterica serovar Typhimurium str. LT2)” as the molecule, how does the Km [1] read?
**A.** 210 ± 35 µM

**Q.** And the Vmax [1]?
**A.** 50 µM/min

**Q.** And the kcat [1]?
**A.** 11.8 ± 0.7 s⁻¹

**Q.** What about the kcat/Km [1] of the same molecule?
**A.** 56700 M⁻¹ s⁻¹

**Q.** Which Km [1] does the source give for “SeAcnB (Salmonella enterica subsp. enterica serovar Typhimurium str. LT2)” here?
**A.** 208 ± 39 µM

**Q.** What about the Vmax [1] of the same molecule?
**A.** 10 µM/min

**Q.** What about the kcat [1] of the same molecule?
**A.** 6.6 ± 0.667 s⁻¹

**Q.** What about the kcat/Km [1] of the same molecule?
**A.** 31700 M⁻¹ s⁻¹

B1: SeAcnA (Salmonella enterica subsp. enterica serovar Typhimurium str. LT2) (protein)
chain: MSSTLREASKDTLQAKDKTYHYYSLPLAAKSLGDIARLPKSLKVLLENLLRWQDGESVTDEDIQALAGWLKNAHADREIAWRPARVLMQDFTGVPAVVDLAAMREAVKRLGGDTSKVNPLSPVDLVIDHSVTVDHFGDDDAFEENVRLEMERNHERYMFLKWGKQAFSRFSVVPPGTGICHQVNLEYLGKAVWSELQDGEWIAYPDSLVGTDSHTTMINGLGVLGWGVGGIEAEAAMLGQPVSMLIPDVVGFKLTGKLREGITATDLVLTVTQMLRKHGVVGKFVEFYGDGLDSLPLADRATIANMSPEYGATCGFFPIDAITLEYMRLSGRSDDLVELVETYAKAQGMWRNPGDEPVFTSTLELDMGDVEASLAGPKRPQDRVALGDVPKAFAASAELELNTAQRDRQPVDYTMNGQPYQLPDGAVVIAAITSCTNTSNPSVLMAAGLLAKKAVTLGLKRQPWVKASLAPGSKVVSDYLAQAKLTPYLDELGFNLVGYGCTTCIGNSGPLPEPIETAIKKGDLTVGAVLSGNRNFEGRIHPLVKTNWLASPPLVVAYALAGNMNINLATDPLGYDRKGDPVYLKDIWPSAQEIARAVELVSSDMFRKEYAEVFEGTEEWKSIQVESSDTYGWQSDSTYIRLSPFFDEMQAQPAPVKDIHGARILAMLGDSVTTDHISPAGSIKPDSPAGRYLQNHGVERKDFNSYGSRRGNHEVMMRGTFANIRIRNEMLPGVEGGMTRHLPGTEAMSIYDAAMLYQQEKTPLAVIAGKEYGSGSSRDWAAKGPRLLGIRVVIAESFERIHRSNLIGMGILPLEFPQGVTRKTLGLTGEEVIDIADLQNLRPGATIPVTLTRSDGSKETVPCRCRIDTATELTYYQNDGILHYVIRNMLN
**Q.** What does the source list for B1?
**A.** Km (purified protein): 22 ± 2 µM; Vmax (purified protein): 86 µM/min; kcat (purified protein): 62.3 ± 1.45 s⁻¹; kcat/Km (purified protein): 2.83e+06 M⁻¹ s⁻¹

B2: SeAcnB (Salmonella enterica subsp. enterica serovar Typhimurium str. LT2) (protein)
chain: MLEEYRKHVAERAAQGIVPKPLDATQMAALVELLKTPPVGEEEFLLDLLINRVPPGVDEAAYVKAGFLAAVAKGDTTSPLVSPEKAIELLGTMQGGYNIHPLIDALDDAKLAPIAAKALSHTLLMFDNFYDVEEKAKAGNEYAKQVMQSWADAEWFLSRPPLAEKITVTVFKVTGETNTDDLSPAPDAWSRPDIPLHAQAMLKNAREGIEPDQPGVVGPIKQIEALQKKGYPLAYVGDVVGTGSSRKSATNSVLWFMGDDIPNVPNKRGGGLCLGGKIAPIFFNTMEDAGALPIEVDVSNLNMGDVIDVYPYKGEVRNHETGELLATFELKTDVLIDEVRAGGRIPLIIGRGLTTKAREALGLPHSDVFRQAKDVAESSRGFSLAQKMVGRACGVKGIRPGAYCEPKMTSVGSQDTTGPMTRDELKDLACLGFSADLVMQSFCHTAAYPKPVDVTTHHTLPDFIMNRGGVSLRPGDGVIHSWLNRMLLPDTVGTGGDSHTRFPIGISFPAGSGLVAFAAATGVMPLDMPESVLVRFKGKMQPGITLRDLVHAIPLYAIKQGLLTVEKKGKKNIFSGRILEIEGLPDLKVEQAFELTDASAERSAAGCTIKLNKEPIVEYLTSNIVLLKWMIAEGYGDRRTLERRIQGMEKWLADPQLLEADADAEYAAVIDIDLADIKEPILCAPNDPDDARLLSDVQGEKIDEVFIGSCMTNIGHFRAAGKLLDNHKGQLPTRLWVAPPTRMDAAQLTEEGYYSVFGKSGARIEIPGCSLCMGNQARVADGATVVSTSTRNFPNRLGTGANVFLASAELAAVAALIGKLPTPEEYQTYVAQVDKTAVDTYRYLNFDQLSQYTEKADGVIFQTAV
**Q.** Which results are given for B2?
**A.** Km (purified protein): 17 ± 3 µM; Vmax (purified protein): 21 µM/min; kcat (purified protein): 34.9 ± 1.67 s⁻¹; kcat/Km (purified protein): 2.05e+06 M⁻¹ s⁻¹

B3: Shewanella oneidensis MR-1 PrpF K73E variant (SoPrpF^K73E) (enzyme)
chain: MSNKLFPPQIKVAATYMRGGTSKGVFFRLQDLPEAAQVPGPARDALLLRVIGSPDPYAKQIDGMGGATSSTSETVILSHSSKANHDVDYLFGQVSIDKPFVDWSGNCGNLTAAVGAFAISNGLIDAARIPRNGVCTVRIWQANIGKTIIAHVPITDGAVQETGDFELDGVTFPAAEVQIEFMNPAADDDGEGGCMFPTGNLVDVLEVPGIGRFNATMINAGIPTIFINAEDLGYTGTELQDDINSDNAALAKFETIRAHGALRMGLIKHIDEAASRQHTPKIAFVAPPKSYASSSGKTVAAEDVDLLVRALSMGKLHHAMMGTAAVAIGTAAAIPGTLVNLAAGGGEKEAVRFGHPSGTLRVGAQAVQENGEWTVIKAIMSRSARVLMEGFVRVPKP
notes: PrpF (2-methylaconitate isomerase) of Shewanella oneidensis MR-1, with the substitution K73E; prpF+ cloned into pTEV4 (template pPRP196); also called Apo-SoPrpF^K73E; prpF258; source: E. coli, plasmid pPRP221 (pTEV4), IPTG-induced, purified (Maxwell 16 system)
**Q.** Does B3 bind [2]?
**A.** binds

From paper PMC5690661, “The PrpF protein of Shewanella oneidensis MR-1 catalyzes the isomerization of 2-methyl-cis-aconitate during the catabolism of propionate via the AcnD-dependent 2-methylcitric acid cycle” (PLoS ONE, 2017)
